We go through three molecules from patent US20230324404A1 (Takeda / Millennium, published 2023).

Assay [1] addresses T1, DENV4 VLP (strain Dominica/814669/1981) (Dengue virus serotype 4 strain …, UniProt P09866 114-732).
T1 construct: also called dengue-4 virus like particle
Description: microsphere immunoassay, DENV4 VLP-coupled microspheres, 120 min incubation.

For assay [2], the target named is T2, DENV2 VLP (strain Thailand/16681/84) (Dengue virus serotype 2 strain …).
T2 construct: also called dengue-2 virus like particle
Nature of the assay: microsphere immunoassay, DENV2 VLP-coupled microspheres, 120 min incubation.

The target in assay [3] is T3, ZIKV VLP (zika virus like particle, isolate Z1106033) (Zika virus isolate Z1106033 (Suriname, …, UniProt A0A024B7W1 123-794)).
T3 construct: also called zika VLP; ZIKV VLPs

In assay [4] the target is T4, DENV1 VLP (strain Puerto Rico/US/BID-V853/1998) (Dengue virus serotype 1 strain Puerto …).
T4 construct: also called dengue-1 virus like particle
Description: microsphere immunoassay, DENV1 VLP-coupled microspheres, 120 min incubation.

In assay [5] the target is T5, DENV3 VLP (strain Sri Lanka D3/H/IMTSSA-SRI/2000/1266) (Dengue virus serotype 3 strain Sri …).
T5 construct: also called dengue-3 virus like particle
Description: microsphere immunoassay, DENV3 VLP-coupled microspheres, 120 min incubation.

Assay [6] deals with T1, DENV4 VLP (strain Dominica/814669/1981). Nature of the assay: microsphere immunoassay, DENV4 VLP-coupled microspheres.
The target in assay [7] is rZIKV-EDIII-1 (recombinant 6xHis-SUMO-tagged ZIKV EDIII) (Zika virus strain H/PF/2013, UniProt A0A024B7W1 589-697). Nature of the assay: Bio-layer interferometry (Octet). On the technique in general: BLI is a label-free optical method that tracks binding on a fibre tip over time.
For assay [8], the target named is T2, DENV2 VLP (strain Thailand/16681/84). Nature of the assay: microsphere immunoassay, DENV2 VLP-coupled microspheres.
Assay [9] deals with T5, DENV3 VLP (strain Sri Lanka …). Nature of the assay: microsphere immunoassay, DENV3 VLP-coupled microspheres.
For assay [10], the target named is T4, DENV1 VLP (strain Puerto …). Nature of the assay: microsphere immunoassay, DENV1 VLP-coupled microspheres.

B1: Anti-ZIKV #10 (Clone 329-2) (antibody)
heavy: QAQLEESGGDLVKPEGSLTLTCTASGFSFTDRHYMCWVRQAPGKGLEWIACVYPGSSGSTYYASWARGRFTISKTSSTTVTLRMTSLTAADTATYFCARSSYPDSSGYSYGMDLWGPGTLVTVSSGQPKAPSVFPLAPCCGDTPSSTVTLGCLVKGYLPEPVTVTWNSGTLTNGVRTFPSVRQSSGLYSLSSVVSVTSSSQPVTCNVAHPATNTKVDKTVAPSTCSKPTCPPPELLGGPSVFIFPPKPKDTLMISRTPEVTCVVVDVSQDDPEVQFTWYINNEQVRTARPPLREQQFNSTIRVVSTLPIAHQDWLRGKEFKCKVHNKALPAPIEKTISKARGQPLEPKVYTMGPPREELSSRSVSLTCMINGFYPSDISVEWEKNGKAEDNYKTTPAVLDSDGSYFLYSKLSVPTSEWQRGDVFTCSVMHEALHNHYTQKSISRSPGK
light: DIVMTQTPASVEAAVGGTVTIKCQASQNINSNLAWYQQKPGQRPKFLMYLTSKLASGVPSRFRGSGSGTQFTLTISDLECADAATYYCQTYYDISNYGYAFGGGTEVVVKGDPVAPTVLIFPPAADQVATGTVTIVCVANKYFPDVTVTWEVDGTTQTTGIENSKTPQNSADCTYNLSSTLTLTSTQYNSHKEYTCKVTQGTTSVVQSFNRGDC
Consider B1, for which the binding result in assay [1], in [2], in assay [4] and in assay [5] was “no binding (tested: 0.001 to 20 µg/mL)” throughout. Also, the EC25 (in general, the point of the concentration-response curve where the effect stands at 25%) in assay [3] was 4.3 ng/mL. For the same molecule, the EC50 (commonly the concentration needed to bring the measured effect to its halfway point) in assay [3] amounted to 14.5 ng/mL.

B2: Anti-ZIKV #11 (Clone 11-3) (antibody, V domains shown)
VH: QEQLVESGGGLVQPEGSLTITCTGSGFSFSSRFYMCWVRQAPGKGLEWIACIYGGSSGSTYYASWAKGRFTISKTSSTTVTLQISSLTAADTATYFCARGGSTAAAGFNLWGPGTLLTVSS
VL: DVVMTQTPASVSATVGGTVTIKCQASEDIYNLLAWYQQKPGQPPKLLIYYASTLASGVPSRFKGSGSGTEFTLTISDLECADAATYYCQCNDYGGTYVPNAFGGGTEVVVKG
Take B2: the binding result in assay [1], in [2], in [4] and in assay [5] was “no binding (tested: 0.001 to 20 µg/mL)” throughout. In assay [3], this molecule displayed an EC25 of 3.2 ng/mL. Besides, the midpoint of the response in assay [3], the EC50, lay at 10.5 ng/mL.

B3: Anti-ZIKV #4 (Clone 289-3) (antibody, V domains shown)
VH: QEELEESGGDLVKPGASLTLTCKASGFSFSSGAYICWVRQAPGKGPEWIACIYTGDGRTYYANWAKRRFTISSSSSTTVALEMPSLTDADTATYFCARAIAVGAGYGVGNYFTLWGPGTLVTVSS
VL: DIVMTQTPSSVSAAVGGTVTINCHASENIYGYLSWYQQKPGQPPKLLIYKASTLASGVPSRFKGSGAGTQFTLTITALECADAATYYCQSYYTSSSNADGSENAFGGGTEVVVEG
Consider B3, for which the binding result in assay [6] is recorded as “no binding (tested: 0.001 to 20 µg/mL)”; in assay [7], “binds”; in assay [8], “no binding (tested: 0.001 to 20 µg/mL)”; in assay [9], “no binding (tested: 0.001 to 20 µg/mL)”; in [10], “no binding (tested: 0.001 to 20 µg/mL)”.
